Data from PMC9519043.

Tests used:
[1] = biological target: SARS-CoV-2 virus particle (S protein), native, patient saliva (SARS-CoV-2 (clinical isolates)) (UniProt P0DTC2); assay: microfluidic affinity capture, RT-qPCR; conditions: 5' amino C12 linker and TEG spacer 9; 3' inverted dT; SPR (BIAcore T200, […], pH not stated; chip capture from buffer or saliva at 20 ul/min
[2] = test system: HRSV virus particle (Human respiratory syncytial virus strain A2 (ATCC VR-1540)); assay: microfluidic affinity capture, RT-qPCR; conditions: SPR (BIAcore T200, […], pH not stated

| Sequence | binding signal [1] [% recovery] | binding signal [2] [% recovery] |
| --- | --- | --- |
| CAGCACCGACCTTGTGCTTTGGGAGTGCTGGTCCAAGGGCGTTAATGGACA [51-nt SARS-CoV-2 aptamer, chip form] | 94.7 |  |
| TAGGGAAGAGAAGGACATATGATAGTGCGGTGAGCCGTCGGACATACAAATACTTGACTAGTACATGACCACTTGA [HRSV aptamer (Percze et al.), chip form] |  | 74.2 |
